Test results published in patent publication US11845963B2, “HSD17B13 variants and uses thereof” (Regeneron Pharmaceuticals, Inc., priority 2017, dated 2023).
Entries after “also recorded” stand apart in the source; their conditions may differ.

B1: HSD17B13 isoform D: HSD17B13 protein Isoform D, SEQ ID NO:42; prematurely truncated protein encoded by Transcript D of the rs72613567 variant (protein)
chain: MNIILEILLLLITIIYSYLESLVKFFIPQRRKSVAGEIVLITGAGHGIGRQTTYEFAKRQSILVLWDINKRGVEETAAECRKLGVTAHAYVVDCSNREEIYRSLNQVKKEVGDVTIVVNNAGTVYPADLLSTKDEEITKTFEVNILGHFWITKALLPSMMERNHGHIVTVASVCGHEGIPYLIPYCSSKFAAVGFHRGLTSELQALGKTGIKTSCLCPVFVNTGFTKNPSTRLWPVLETDEVVRSLIDGILTNKKMIFVPSYINIFLRLQKVSS
modifications: homo sapien
notes: prematurely truncated protein encoded by Transcript D of the rs72613567 variant
B2: HSD17B13 isoform A: HSD17B13 protein Isoform A, SEQ ID NO:39; full-length 300 amino acid protein encoded by Transcript A (protein)
chain: MNIILEILLLLITIIYSYLESLVKFFIPQRRKSVAGEIVLITGAGHGIGRQTTYEFAKRQSILVLWDINKRGVEETAAECRKLGVTAHAYVVDCSNREEIYRSLNQVKKEVGDVTIVVNNAGTVYPADLLSTKDEEITKTFEVNILGHFWITKALLPSMMERNHGHIVTVASVCGHEGIPYLIPYCSSKFAAVGFHRGLTSELQALGKTGIKTSCLCPVFVNTGFTKNPSTRLWPVLETDEVVRSLIDGILTNKKMIFVPSYINIFLRLQKFLPERASAILNRMQNIQFEAVVGHKIKMK
modifications: homo sapien
notes: full-length 300 amino acid protein encoded by Transcript A

Tests used:
[1] = molecular target: T1, recombinant human HSD17B13 (Homo sapiens, UniProt Q7Z5P4); assay: Substrate screening of steroid and bioactive lipid libraries against purified recombinant HSD17B13 (NADH-Glo); assay type: biochemical; conditions: 265 unique putative substrates tested
T1 sequence (Q7Z5P4 20-300): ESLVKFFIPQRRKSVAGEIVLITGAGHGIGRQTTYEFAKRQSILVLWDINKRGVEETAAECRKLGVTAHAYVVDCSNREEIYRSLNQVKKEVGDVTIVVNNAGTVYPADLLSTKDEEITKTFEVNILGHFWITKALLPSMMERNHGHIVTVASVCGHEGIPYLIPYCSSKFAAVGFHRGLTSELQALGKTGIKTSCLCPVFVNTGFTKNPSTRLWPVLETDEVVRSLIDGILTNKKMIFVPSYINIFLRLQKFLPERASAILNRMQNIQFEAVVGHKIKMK
Experimental: Reactions were performed in a final volume of 40 μl of assay buffer (0.2 M Tris-HCl, pH 7.5) which contained 500 μM NAD^+, 5 μM bioactive lipid or 50 μM steroid (all in a final concentration of 5% DMSO), and 100 ng recombinant human HSD17B13. Reactions were incubated for 3 hours, at 23° C. after which an equal volume NADH-Glo Detection Reagent (Promega) was added. Following a 1 hour incubation at 23° C., the relative light units (RLUs) were measured on an Envision Plate Reader (Perkin Elmer). Raw RLU values were normalized as percent of control (50 μM estradiol) following subtraction of negative control (5% DMSO) using the following formula: Percent of control (POC)=100×(Sample (RLU)−Negative CTRLaverage)/(Positive CTRLaverage−Negative CTRLaverage).

[2] = system: HepG2 cells overexpressing HSD17B13 Transcript A or D or GFP; assay: Quantification of intracellular triglyceride content in stable cell lines; assay type: cell-based, human; conditions: for intracellular triglyceride content of overexpressing cell lines versus GFP control: with oleic acid treatment, FIG. 10
Experimental: HepG2 cells were cultured in Eagle's Minimum Essential Medium supplemented with 10% fetal bovine serum. HSD17B13 transcripts A and D were sub-cloned into Myc-DDK backbone lentivirus constructs, and lentivirus were generated. HepG2 cells were infected with lentivirus carrying the HSD17B13 transcripts. Stable cell lines expressing each HSD17B13 transcript were selected with 1-3 mg/ml Geneticin G-418 sulfate in complete culture medium for two weeks. Following fixation, HSD17B13 isoforms were detected with mouse anti-Myc antibody. Lipid droplets were labeled with BODIPY FL dye (Sigma). Secondary antibodies for immunofluorescence were Alexa Fluor 488 donkey anti-rabbit IgG and Alexa Fluor 594 donkey anti-mouse IgG (Jackson ImmunoResearch).
The triglyceride (TG) content from the stable cells was determined using a TG quantification kit (Abcam). In the assay, TG are converted to free fatty acids and glycerol. The glycerol is then oxidized to generate a product which is quantified (spectrophotometry at λ=570 nm).

[3] = molecular target: T2, recombinant human HSD17B13 (Homo sapiens, UniProt Q7Z5P4); assay: In vitro enzymatic activity of purified recombinant HSD17B13 isoforms A and D (NADH production, NAD(P)H-Glo); assay type: biochemical; conditions: FIG. 4E
T2 construct: Transcript A, which encodes the full-length 300 amino acid protein; 10xHis (C); host or cells: E. coli
T2 sequence (Q7Z5P4 with tags, fused parts or gaps): B1 chain
Experimental: Recombinant human HSD17B13 protein was purified from E. coli (Genscript) transformed with plasmid DNA harboring HSD17B13 transcript A or transcript D. The HSD17B13 variants contained a 10×His tag at the C terminus and were purified from soluble fraction using a Ni2^+ affinity purification. Enzymatic activity was determined through measurement of NADH production using the NAD(P)H-Glo Detection System (Promega). Reactions were performed for 3 hours at 25° C. in 0.2 M Tris-HCl, pH 7.5, 0.5 mM NAD^+, 75 μM of substrate (Sigma) and 500 ng purified enzyme in a final volume of 100 μL. After incubation, 20 μL of the reaction was combined with 20 μL luciferase reagent (Promega), incubated at room temperature for 1 hour and read on an Envision Plate Reader (Perkin Elmer).

[4] = system: HEK293 cells overexpressing HSD17B13 transcript A, transcript D or GFP; assay: Cell-based conversion of estradiol to estrone in culture media, LC-MS; set-up: species or system human; conditions: overexpressed in HEK293 cells; FIG. 4F
Experimental: HEK293 cells overexpressing HSD17B13 transcript A, transcript D or green fluorescent protein (GFP, control) were used to investigate the activity of HSD17B13 against estradiol in a cell-based assay. Estradiol (1 μM) was fed to each cell type. After 48 hours, the media was collected and the concentration of estradiol and its converted product estrone were identified and quantified by LC-MS.

| Molecule | conversion of estradiol (substrate) to estrone (product) measured in the culture media [4] | intracellular triglyceride content of overexpressing cell lines versus GFP control [2] | further results |
| --- | --- | --- | --- |
| CCCCC/C=C\C[C@@H](O)/C=C/C=C/C=C\[C@@H](O)CCCC(=O)O [leukotriene B4] |  |  | identified as enzymatic substrate of HSD17B13 [1]: enzymatic substrates of HS17B13 |
| CCCCCCCC/C=C\CCCCCCCC(=O)O [oleic acid, reference compound] |  |  | triglyceride (TG) content after oleic acid treatment ([2]; increasing concentrations of oleic acid, control (GFP), HSD17B13 transcript A and D HepG2 cell lines, FIG. 10B): increased triglyceride (TG) content to a similar extent |
| B1 | did not show much conversion; also recorded: greatly reduced activity towards estradiol | No differences in intracellular triglyceride content | activity towards estradiol in vitro compared to HSD17B13 isoform A ([3]; recombinant protein, NAD+ cofactor): greatly reduced activity towards estradiol; enzymatic activity of the corresponding values for isoform A ([3]; substrates 17-beta estradiol, leukotriene B4 (LTB4), 13(S)-HODE): < 10% |
| B2 | showed robust conversion | No differences in intracellular triglyceride content |  |
